The nanobody polyreactivity screen of Harvey et al. (2022)

assay: yeast display, Sf9 membrane polyspecificity reagent, FACS + sequencing; frameworks hold sequencing errors
Method in brief: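 A synthetic nanobody library was expressed on Saccharomyces cerevisiae BJ5465 by galactose induction for 36–48 hours. The library was stained for 1 hour at 4 °C with 10% biotinylated, detergent-solubilized Sf9 membrane reagent and enriched with streptavidin microbeads before FACS. Low and high (top ~1%) gates were set on anti-HA fluorescence for expression and streptavidin fluorescence for reagent binding, and each polyreactivity label reflects the gate of origin.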

Sequence | polyreactivity (PSR sort gate)
QVQLVESGGGLVQAGGSLRLSCAASGRIFFYNAMGWYRQAPGKETELVAAISSSGGSTSYADSVKGRFTISRDIAKNTVYLHMNSLKPEDTAVYYCAVDDPYYEKYDYWGQGTQVTVSS | low polyreactivity
QVQLVESGGGLVQAGGSLRLSCAASGRIFFYYAMGWYRQAPGKERELVAAINRGGRTYYADSVKGRFTISRDNAKNTVYLQMNSLKPEDTAVYYCAADGQTAKSNFDYWGQGTQVTVSS | low polyreactivity
QVQLVESGGGLVQAGGSLRLSCAASGRIFFYYAMGWYRQAPGKERELVAAIRSGGSTNYADSVKGRFTISRDNAKNTVYLQMNSLKPEDTAVYYCAADPSRYYTRRYYYWGQGTQVTVSS | high polyreactivity
QVQLVESGGGLVQAGGSLRLSCAASGRIFFYYAMGWYRQAPGKERELVAAISNSGGGTYYADSVKGRFTISRDNAKNTVYLQMNSLKPEDTAVYYCAREAGRYAYKYYWWQRPDYDYWGQGTQVTVSS | low polyreactivity
QVQLVESGGGLVQAGGSLRLSCAASGRIFFYYAMGWYRQAPGKERELVATITASGDSTYYADSVKGRFTISRDNAKNTVYLQMNSLKPEDTAVYYCAADDGDYYEVDYWGQGTQVTVSS | low polyreactivity
QVQLVESGGGLVQAGGSLRLSCAASGRIFGAYALGWSRQAPGKEMELVADIRSTGSTYYADSVKGRFTISRDNAKNTVYLQMNSLKPEDTAVYYCAAKYWKWYHYGFGYWGQGTQVTVSS | high polyreactivity
QVQLVESGGGLVQAGGSLRLSCAASGRIFGAYAMGWYRPAPGKERELVAAISARGGRTYYADSVKGRFTISRDNAKNTVYLQMNSLKPEDTAVYYCAKTLRDPYRYDYWGQGTQVTVSS | high polyreactivity
QVQLVESGGGLVQAGGSLRLSCAASGRIFGAYAMGWYRQAPGKERELVAAISSRGGNTYYADSVKGRFTISRDNAKNTVYLQMNSLKPEDTAVYYCAARHDKRRQYYVGQSDFDYWGQGTQVTVSS | low polyreactivity
QVQLVESGGGLVQAGGSLRLSCAASGRIFGAYAMGWYRQAPGKERELVATITKRGGSTFYADSVKGRFTISRDNAKNTVYVKMNSLKPEDTAVYYCAVVRYSPKRYWYGYWGQGTQVTVSS | high polyreactivity
QVQLVESGGGLVQAGGSLRLSCAASGRIFGAYAMGWYRQAPGKEREWVAVINWRSGGTYYADSVKGRFTISRDNAKNTVYLQMNSLKPVDTAVYYCAADDYGFFSAGDFDYWGHGTQVTVSS | high polyreactivity
QVQLVESGGGLVQAGGSLRLSCAASGRIFGDYALGWYRQAPGKERELVAAISWSDGSTYYADSVKGRFTISRDKAKNTVYLQMNSLKPEDTAVYYCAAYGWGYSYVDVVVSDFYYWGQGTQVTVSS | low polyreactivity
QVQLVESGGGLVQAGGSLRLSCAASGRIFGDYGMGWYRQAPGKERELVAAITDRGGPTYYADSVKGRFTISRDNAKNTVYLQRNSLKPEDTAVYYCNARQSDIFDYDYWGQGTQVTVSS | low polyreactivity
QVQLVESGGGLVQAGGSLRLSCAASGRIFGDYGMGWYRQAPGNERELVAAITDRGGTTYYADSVKGRFTISRDNAKNTVYLQMNSLKPEDTAVYYCNARQSDIFDYDYWGQGTQVTVSS | low polyreactivity
QVQLVESGGGLVQAGGSLRLSCAASGRIFGENAMGWYRQAPGKEREFVAVISISDASTYYADSVKGRFTISRDNAKNTVYLQMNSLKPEDTAVYYCNTDYINGYYIEGEPPYKFDYWGQGTQVTVSS | low polyreactivity
QVQLVESGGGLVQAGGSLRLSCAASGRIFGFNTMGWYRQAPGKERELVAAITSGGSTYADSVKGRFTISRDNAKNTVYLQMNSLKPEDTAVYYCNTRFYRPLWGYNYWGQGTQVTVSS | low polyreactivity
QVQLVESGGGLVQAGGSLRLSCAASGRIFGGNAMGWSRQAPGKERELVAAISWSGGSTYADSVKGRFTISRDNAKNTVYLQMNSLKPEDTAVYYCATRLVKYYYYDYRTYGRRYDYWGQGTQVTVSS | high polyreactivity
QVQLVESGGGLVQAGGSLRLSCAASGRIFGGYALGWYRQAPGKERELVAAITRSGGSTYYADSVKGRFTISRDNAKNTVYVQMNSLKPEDTAVYYCAARNYYSWRYDYWGQGTQVTVSS | high polyreactivity
QVQLVESGGGLVQAGGSLRLSCAASGRIFGGYAMGWYRQAPGKERELVASITGGGTTDYADSVKGRFTISRDNAKNTVYLQMNSLKPEDTAVYNCAIRTHQFGVSRSYNTYYYWGQGTQVTVSS | low polyreactivity
QVQLVESGGGLVQAGGSLRLSCAASGRIFGGYAMGWYRQAPGKERELVPSITGRATSTYYADSVKGRFTISRDNAKNTVYLQMNRLKPEDTAVYYFNALYRKYRNQWYISNYGYYYWGQGTQVTVSS | low polyreactivity
QVQLVESGGGLVQAGGSLRLSCAASGRIFGHYAMGWYRQAPGKERELVAAISRSGTRTYYADSVKGRFTISRDNAKNTVYLQMNSLKPEDTAVYYCAAYTYKGIYYYWGQGTQVTVSS | high polyreactivity
QVQLVESGGGLVQAGGSLRLSCAASGRIFGHYAMGWYRQAPGKERELVASISSNGGSTYYADSVKGRFTISRDNAKNTVYLQINSLKPEDTAVYYCAARVSTVFKRYYYWGQGTQVTVSS | high polyreactivity
QVQLVESGGGLVQAGGSLRLSCAASGRIFGHYVMGWYRQAPRKERELDAAITRGDSTYYADSVKGRFTISRDNAKNTVYLEMNSLKPEDTAVYYCAARVWRVDARDRYYWGQGTQVTVSS | high polyreactivity

Sequence | polyreactivity (PSR sort gate)
QVQLVESGGGLVQAGGSLRLSCAASGRIFGINAMGWYRQAPGKERELVAAISWRSGSTYYADSVKGRFTISRDNAKNTVYLQMNSLKPEDTAVYYCAAKQDQDYYWGQGTQVTVSS | low polyreactivity
QVQLVESGGGLVQAGGSLRLSCAASGRIFGINVMGWYRQAPGKERELVARITGRGGRTYYADSVKGRFTISRDNAKNTVYLQINSLKPEDTAFYYCAADARYEAYDYWGQGTQVTVSS | high polyreactivity
QVQLVESGGGLVQAGGSLRLSCAASGRIFGIYAMGWYRQAPGKERELVAAISFIGGRTYYADSVKGRFTISRDNAKNTVYLQMNSLKPEDTAVYYCAARTVPSSRREYWGQGTQVTVSS | high polyreactivity
QVQLVESGGGLVQAGGSLRLSCAASGRIFGIYTMGWYRQAPGKERELVAAITQGGGSTYYADSVKGRFTISRDNAKNTVYLQMNSLNPEDTAVYYCAARPKSPSGTRRYYWGQGTQVTVSS | high polyreactivity
QVQLVESGGGLVQAGGSLRLSCAASGRIFGKNAMGWYIQAPRKERDLVAAITSTGGTTYYADSVMGRFTISRDNAKNTVYLQMNSLKPEDSAVYDCAKDGQTNNETQGLKYDYWGQGTQLTVSS | low polyreactivity
QVQLVESGGGLVQAGGSLRLSCAASGRIFGKNVMGLYRKAPGKERELVAAINRSSRTYYADSVKGRFTISRDNAKNTVYLQMNSLKPEDTAVYYCAAHAFPDGDYWGQGTQVTVSS | high polyreactivity
QVQLVESGGGLVQAGGSLRLSCAASGRIFGKYAMGWYRHAPGKERELVAAIRSRGSTTYYADSVKGRFTISRDNAKNTVYLQMNSLKPEDTAVYYCAKDVGGKPWYPYGYWGQGTQVTVSS | high polyreactivity
QVQLVESGGGLVQAGGSLRLSCAASGRIFGKYAMGWYRQAPGKERELVARISFSGGTTYYADSVKGRFTISRDNAKNTVYLQMNSLKQEDTAVYYCNARRVWSQRWAYDSWGQGTQVTVSS | high polyreactivity
QVQLVESGGGLVQAGGSLRLSCAASGRIFGKYAMGWYRQAPRKERELVARISFSGGTTYYADSVKGRFTISRDNAKNTVYLQMKSLKPEDTAVYYGNARRVWSQRWAYDSWGQGTQVTVSS | high polyreactivity
QVQLVESGGGLVQAGGSLRLSCAASGRIFGLNAMGWYRQAPGKERELVAAITGSVGSTYYADSVKGRFTISRDNAKNTVYLQMNSLKPEDTAVYYCYAEYDSRRSSYYRHFNYWGQGTQVTVSS | low polyreactivity
QVQLVESGGGLVQAGGSLRLSCAASGRIFGLNAMGWYRQAPGQERELVAAIDIIGGSTYYADSVKGRFTISRDNAKNTVYLQMNSLKPEDTAVYNCAAEGDFWRFVEYDYWGQGTQVTVSS | low polyreactivity
QVQLVESGGGLVQAGGSLRLSCAASGRIFGLNTMGRYRQAPGKERELVAAITSSAGSTYYADSVKGRCTISRDNAKNTVYLQMNSLKPEDTAVYYSAARVSYLGSFTSQRYYYWGLGTQVTVSS | high polyreactivity
QVQLVESGGGLVQAGGSLRLSCAASGRIFGLYAMGWYRQAPGKEREFVAAIRLSGGSTYYADSVKGRFTISRDNAKNTVYLQMISLKPEDTAVYYCAADLSYNRGRGSRVYYWGQGTQVTVSS | high polyreactivity
QVQLVESGGGLVQAGGSLRLSCAASGRIFGLYAMGWYRQAPGKERELVAAITKRGGTTYYADSVKVRFTISRDNAKNTVYLQMKSLKPEDTAVYYCAAKRSVLRTADYDYWGQGTQVTVSS | high polyreactivity
QVQLVESGGGLVQAGGSLRLSCAASGRIFGMYTKGWYRQETGKETELVAAINTGGSTYYADSVKGRFTISRDNAKNTVYLQMNSLKPEDTAVYYCNAETGWPWIYHYDYWGQGTQVTVSS | low polyreactivity
QVQLVESGGGLVQAGGSLRLSCAASGRIFGNNAMGWYRQAPGKERELVAAIRSRGTRTYYADSVKGRFTISRDNAKNTVYLQMNSLKPEDTAVYYCATTSLTGRYDRYDYWGQGTQVTVSS | high polyreactivity
QVQLVESGGGLVQAGGSLRLSCAASGRIFGNYAMGWYRPATGKESELVAAISGGGSTYYADSVKGRFTISRDNAKNTVYLQMNSVKPEDTAVYYCAARFMWSVFGRKGGYWGQGTHVTVSS | low polyreactivity
QVQLVESGGGLVQAGGSLRLSCAASGRIFGNYAMGWYRQAPGKERELVAAISGGGSTYYADSVKGRFTISRDNAKNTVYLQMNSLKPEDTAVYYCNAKTYYPPFGYWGQGTQVTVSS | low polyreactivity
QVQLVESGGGLVQAGGSLRLSCAASGRIFGPNAMGWYRQAPGKERELVAAITGSGGSTYADSVKGRFTISRDNAKNTVYLQMNSLKREDTAVYYCAKKTWYSYYWGQGTQVTVSS | high polyreactivity
QVQLVESGGGLVQAGGSLRLSCAASGRIFGPYAMGWYRQAPGKDRELVAAISASGGRTYDADSVKGRFTISRDNAKNTVYLQMNSLKPEDTAVYYCARRYWHSGWIFDYWGQGTQVTVSS | high polyreactivity
QVQLVESGGGLVQAGGSLRLSCAASGRIFGPYAMGWYRQAPGKERELVAAITQRGGSTSYADSVKGRFTISRDNAKKTVYLQMNSLKPEDTAVYYCNVLSYGSIPRRGYYYVWGDYWGQGTQVTVSS | high polyreactivity
